In US20100120124A1 (CONSEJO SUPERIOR DE INVESTIGACIONES CIENTIFICAS, published 2010):

T1: α-amylase (pig pancreatic enzyme α-amylase, Sigma) (pig, UniProt P00690 16-511)
T1 sequence: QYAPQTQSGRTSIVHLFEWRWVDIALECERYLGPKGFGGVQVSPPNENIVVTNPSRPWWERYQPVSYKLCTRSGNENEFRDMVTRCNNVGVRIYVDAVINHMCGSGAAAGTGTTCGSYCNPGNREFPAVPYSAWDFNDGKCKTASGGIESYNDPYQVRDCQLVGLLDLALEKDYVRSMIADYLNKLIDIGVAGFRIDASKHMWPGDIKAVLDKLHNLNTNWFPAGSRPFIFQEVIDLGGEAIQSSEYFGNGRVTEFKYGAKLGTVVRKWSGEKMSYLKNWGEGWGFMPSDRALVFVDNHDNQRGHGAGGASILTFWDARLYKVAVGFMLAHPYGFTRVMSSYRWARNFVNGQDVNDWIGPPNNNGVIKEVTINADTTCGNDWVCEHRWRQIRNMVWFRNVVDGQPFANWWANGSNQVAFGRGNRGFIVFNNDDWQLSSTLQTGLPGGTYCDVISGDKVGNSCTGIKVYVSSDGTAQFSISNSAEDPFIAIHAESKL

B1: fusion antibody EspF-Vgfp (EspF20 signal fused to camel VHH anti-GFP with C-terminal 6xhis and E-tag) (VHH)
VHH: QVQLVESGGALVQPGGSLRLSCAASGFPVNRYSMRWYRQAPGKEREWVAGMSSAGDRSSYEDSVKGRFTISRDDARNTVYLQMNSLKPEDTAVYYCNVNVGFEYWGQGTQVTVSS
notes: also called product of plasmid pEspFVgfp
B2: fusion antibody EspF-Vamy (EspF20 signal fused to camel VHH anti-amylase with C-terminal 6xhis and E-tag) (VHH)
VHH: QVQLVESWGGSVQAGGSLRLSCTAPGFTSNSCRMDWYRQAAGKQREWVSSISTDGRTSYADSVKGRFTISKDKAKDTVYLQMNSLKPEDTAIYYCAVRTNGYRPQSHEFRYWGPGTQVTVSS
notes: also called EspF20-Vamy; product of plasmid pEspFVamy

What was measured:
[1] = molecular target: T1, α-amylase (pig pancreatic enzyme …); experiment: ELISA, supernatant of EPEC culture on coated antigen, anti-E-tag-POD
[2] = molecular target: T2, bovine seroalbumin (BSA, Roche) (bovine, UniProt P02769 25-607); experiment: as above
T2 construct: also called bovine albumin
T2 sequence (P02769 25-607 limits assumed): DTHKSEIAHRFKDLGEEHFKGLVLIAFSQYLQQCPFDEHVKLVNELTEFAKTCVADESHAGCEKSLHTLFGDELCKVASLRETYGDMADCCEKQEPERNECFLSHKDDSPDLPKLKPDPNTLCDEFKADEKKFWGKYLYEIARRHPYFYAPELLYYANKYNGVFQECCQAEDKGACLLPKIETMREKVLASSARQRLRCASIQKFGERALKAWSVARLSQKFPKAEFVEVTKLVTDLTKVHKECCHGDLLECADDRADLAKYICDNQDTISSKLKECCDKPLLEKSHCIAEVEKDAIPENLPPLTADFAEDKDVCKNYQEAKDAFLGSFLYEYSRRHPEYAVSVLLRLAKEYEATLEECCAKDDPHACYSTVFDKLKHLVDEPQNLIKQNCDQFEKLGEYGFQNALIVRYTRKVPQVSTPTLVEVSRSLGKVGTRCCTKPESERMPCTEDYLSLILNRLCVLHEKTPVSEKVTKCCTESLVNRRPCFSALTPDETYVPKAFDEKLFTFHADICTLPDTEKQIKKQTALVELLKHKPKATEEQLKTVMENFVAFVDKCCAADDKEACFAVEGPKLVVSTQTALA

Row | Binder | binding result [1] | binding result [2]
1 | B1 | no binding | no binding
2 | B2 | binds | no binding
